# No end group written: not given here.
# T1: human OX40 (CD134), full length, expressed on cells (activated human T cells); EL4-OX40 and CHO-OX40 … (human, UniProt P43489 29-277)
# T1 sequence: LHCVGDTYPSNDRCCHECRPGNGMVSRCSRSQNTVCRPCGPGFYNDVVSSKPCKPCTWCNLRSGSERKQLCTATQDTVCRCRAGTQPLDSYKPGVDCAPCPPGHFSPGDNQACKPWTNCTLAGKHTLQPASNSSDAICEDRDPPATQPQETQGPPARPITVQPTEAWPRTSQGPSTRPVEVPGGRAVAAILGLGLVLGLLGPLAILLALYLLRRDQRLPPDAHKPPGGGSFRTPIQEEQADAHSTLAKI
# T2: human OX40 peptide 112A (human, also: conjugated to KLH via maleimide linker)
# T2 peptide: RPAGPGFYNDVVSSKPC
# T3: human OX40 peptide 112B (human, also: conjugated to KLH via maleimide linker)
# T3 peptide: RAGTQPLDSYKPGVDC
# T4: human OX40 peptide 112C (human, also: conjugated to KLH via maleimide linker)
# T4 peptide: LAGKHTLQPASNSSDAIC
# Experiments:
# [1] = molecular target: T1, human OX40 (CD134), full length, …; test: cell-based or functional assay
# human OX40 peptide 112A = molecular target: T2, human OX40 peptide 112A; test: ELISA on coated KLH-conjugated peptide
# Procedure: (§1) Antibody titers, specificity, and production by hybridomas were determined by ELISA. In brief, 96 well flat bottom plates were coated with 50 μl of hOX40:hFc at 5 μg/ml in carbonate buffer (pH 9.4) overnight at 4° C. or at 37° C. for one hour. After washing twice with PBS/0.1% Tween 20, plates were blocked with PBS/1% BSA/0.1% Tween20 at 37° C. for one hour. The serum, supernatant, or purified antibody was diluted in blocking buffer, added to the wells, and the plates were incubated for one hour at 37° C. The plates were washed four times with PBS/0.1% Tween 20 and the peroxidase conjugated sheep anti-human kappa detection antibody (The Binding Site, Birmigham, UK) was added at a dilution of 1:2000. Following one hour incubation at 37° C., the plates were washed and the TMB (Sigma) substrate was added and incubated at room temperature for ten to thirty minutes. The reaction was stopped with H₂SO₄ (LabChem) and the optical density was measured at 450 nm by a microplate reader.
# (§2) The peptides were generated by A & A Lab, LLC and conjugated to keyhole limpet hemocyanin (“KLH”) with a maleimide linker following the manufacturer's instructions (Pierce). The peptides were coated at 10 μg/ml in carbonate buffer to 96 well Maxisorp ELISA plates (Nunc) at 4° C. overnight. The plate was washed with PBS/0.1% Tween 20 and then blocked with Casein buffer (Pierce) for three hours at room temperature. Candidate antibodies were added at 10 μg/ml diluted in 10% Casein in PBS/0.1% Tween 20. The remainder of the ELISA was performed as described for the OX40 specific antibody detection ELISA.
# human OX40 peptide 112B = molecular target: T3, human OX40 peptide 112B; test: ELISA on coated KLH-conjugated peptide
# Procedure: as §1, §2
# human OX40 peptide 112C = molecular target: T4, human OX40 peptide 112C; test: ELISA on coated KLH-conjugated peptide
# Procedure: as §1, §2
# [2] = molecular target: T5, human OX40 extracellular domain fused to the Fc portion of human IgG1 (hOX40:hFc) (human); test: ELISA, OX40L-FLAG binding to coated hOX40:hFc, anti-FLAG-HRP
# T5 construct: Made in Tn5 insect cells; also called OX40-hIgG1; human OX40:hIgG1 fusion protein
# Procedure: (§3) The ability of 112F32, 112V8, 112Y131, 112Y55, and 112Z5 to block soluble hOX40L binding to coated hOX40:hFc fusion protein was tested using an ELISA protocol (FIG. 5A, Table 3). The plates were coated with hOX40:hFc and after blocking non-specific sites the anti-OX40 antibodies were allowed to bind. Without washing OX40L-FLAG was added to the wells. Bound ligand was detected with anti-FLAG-HRP secondary antibody. Percent inhibition was determined using the following formula (100−(OD sample/OD maximum OX40L binding))*100. 112V8, 112Y55, and 112Y131 prevented 85% of the binding of soluble OX40L to hOX40:hFc. 112F32 prevented approximately 70% of the binding of soluble hOX40L to hOX40:hFc and 112Z5 blocked 67% of the maximal binding.
# [3] = molecular target: T5, human OX40 extracellular domain fused …; test: ELISA, blocking of OX40L-FLAG binding to coated hOX40:hFc
# Procedure: as §3
# [4] = molecular target: T1, human OX40 (CD134), full length, …; test: flow cytometry titration on activated human T cells, anti-human IgG-PE
# Procedure: (§4) Following twenty minute incubation on ice, the cells were washed once and fixed ten minutes with 1% paraformaldehyde. After a final wash the cells were resuspended in staining buffer and the samples were acquired using FACScan or FACS Calibur flow cytometers (Becton Dickinson Biosciences, Palo Alto, Calif.), and the data were analyzed using Cellquest (Becton Dickinson Biosciences) or Flow Jo (TreeStar, Inc., San Carlos, Calif.) software. The activated T cells were also stained with mouse anti-human OX40 antibody L106 (Becton Dickinson), which was directly conjugated to phycoerythrin or whose binding was detected with anti-mouse IgG-PE (Southern Biotechnology Associates.) OX40L Blocking Assays: To determine if the anti-human OX40 antibodies could block OX40L binding to soluble OX40 both ELISA and flow cytometric protocols were used. In the ELISA 96 well Nunc flat bottom plates were coated with recombinant soluble hOX40:hFc at 2 μg/ml in carbonate buffer (pH9.4) for one hour at 37° C. The plates were washed with PBS/0.1% Tween 20 and Superblock (Pierce) was added to the wells to block non-specific binding. The test antibodies were diluted to 1 μg/ml in PBS/Tween and added to the plates. After one hour incubation at 37° C., FLAG tagged recombinant soluble human OX40L (Alexis Biochemicals, San Diego, Calif.) was added to the appropriate wells without washing out the anti-OX40 antibodies. Following one hour incubation, the plates were washed and an anti-FLAG-peroxidase conjugated antibody (Sigma) was added to the wells for one hour at 37° C. The TMB substrate was added, after ten minutes the reaction was stopped with H₂SO₄, and the results were read at 450 nm using a microplate reader. In the flow cytometric assay, human CD4+ T cells were purified and activated with PHA+IL2 for two days. The cells were washed and resuspended in staining buffer and then incubated with increasing amounts of human anti-human OX40 antibodies for twenty minutes on ice, from 0.005-50 μg/ml. Soluble recombinant OX40L-FLAG was then added to the cells. The cells were washed and incubated with anti-FLAG conjugated to PE (Sigma). After another wash, the cells were fixed with 1% paraformaldehyde and analyzed on a FACScan or FACScalibur.
# [5] = molecular target: T1, human OX40 (CD134), full length, …; test: flow cytometry, blocking of OX40L-FLAG binding to activated human T cells
# From the text: as §4, with “The” for “Following twenty minute incubation on ice, the cells were washed once and fixed ten minutes with 1% paraformaldehyde. After a final wash the cells were resuspended in staining buffer and the samples were acquired using FACScan or FACS Calibur flow cytometers (Becton Dickinson Biosciences, Palo Alto, Calif.), and the data were analyzed using Cellquest (Becton Dickinson Biosciences) or Flow Jo (TreeStar, Inc., San Carlos, Calif.) software. The”
# (§5) Slightly different results were obtained when a flow cytometric based assay was used to monitor blockade of soluble OX40L binding to activated human T cells that express OX40 (FIG. 5B). Activated human T cells were labeled with anti-OX40 antibodies followed by soluble flag tagged-human OX40L. Binding of OX40L was detected with anti-FLAG-PE antibody. Percent inhibition was determined using the same formula, i.e., (100−(sample/maximum binding))*100.
# [6] = molecular target: T1, human OX40 (CD134), full length, …; test: flow cytometry, blocking of OX40L-FLAG binding to activated human T cells; footnote: not inhibitory at 50 µg/ml
# From the text: The activated T cells were also stained with mouse anti-human OX40 antibody L106 (Becton Dickinson), which was directly conjugated to phycoerythrin or whose binding was detected with anti-mouse IgG-PE (Southern Biotechnology Associates.) OX40L Blocking Assays: To determine if the anti-human OX40 antibodies could block OX40L binding to soluble OX40 both ELISA and flow cytometric protocols were used. In the ELISA 96 well Nunc flat bottom plates were coated with recombinant soluble hOX40:hFc at 2 μg/ml in carbonate buffer (pH9.4) for one hour at 37° C. The plates were washed with PBS/0.1% Tween 20 and Superblock (Pierce) was added to the wells to block non-specific binding. The test antibodies were diluted to 1 μg/ml in PBS/Tween and added to the plates. […] The TMB substrate was added, after ten minutes the reaction was stopped with H₂SO₄, and the results were read at 450 nm using a microplate reader. […] After another wash, the cells were fixed with 1% paraformaldehyde and analyzed on a FACScan or FACScalibur.
# as §5, with “Activated human T cells were labeled with anti-OX40 antibodies followed by soluble flag tagged-human OX40L.” left out
Binder,ADCC % Lysis at 10 µg/ml [1] [%],binding result (human OX40 peptide 112A),binding result (human OX40 peptide 112B),binding result (human OX40 peptide 112C),percent inhibition of OX40L binding [2] [%],IC50 [3] [µg/mL],BMAX Geo Mean [4],Kd [4] [nM],IC50 [5] [µg/mL],IC50 [6] [µg/mL]
"112V8 human anti-human OX40 monoclonal antibody (hybridoma ATCC No. PTA-7219) (antibody, IgG4, V domains shown) VH: QITLKESGPTLVKPKQTLTLTCTFSGFSLSTSGMGVGWIRQPPGKALEWLAVIYWDDHQLYSPSLKSRLTITKDTSKNQVVLTMTNMDPVDTATYYCAHRRGAFQHWGQGTLVTVSS VL: not shown",,no binding (tested: 10 µg/ml),no binding (tested: 10 µg/ml),no binding (tested: 10 µg/ml),85,0.051,181 geometric mean fluorescence,36,0.62,
"112F32 human anti-human OX40 monoclonal antibody (hybridoma ATCC No. PTA-7217) (antibody, V domains shown) VH: GVQLVESGGGLVQPGGSLRLSCAASGFTFSSYSMNWVRQAPGKGLEWVSYISSSSSTIYYADSVKGRFTISRDNAKNSLYLQMNSLRDEDTAVYYCARGVYHNGWSFFDYWGQGTLLTVSS VL: DIQMTQSPSSLSASVGNRVTITCRASQDISSWLAWYQQKPEKAPKSLIYAASSLQSGVPSRFSGSGSGTDFTLTISSLQPEDFATYYCQQYNSYPLTFGQGTRLEIKR",,no binding (tested: 10 µg/ml),no binding (tested: 10 µg/ml),no binding (tested: 10 µg/ml),~70,0.65,104 geometric mean fluorescence,13,,> 50
"112Z5 human anti-human OX40 monoclonal antibody (hybridoma ATCC No. PTA-7216) (antibody, V domains shown) VH: VVSTQSTGGGLVQPGRSLRLSCAASGFTLDDYGMHWVRQAPGKGLEWVSGISWNSDSIGYVDSVKGRFTISRDNAKNSLYLQMNSLRVEDTALYYCVKDISGWYSFDYWGQGTLVTVSS VL: EIVLTQSPATLSLSPGERATLSCRASQSVSSYLAWYQQKPGQAPRLLIYDASNRATGIPARFSGSGSGTDFTLTISSLEPEDFAVYYCQQRSNWPITFGQGTRLEIK",35,,,,67,0.081,118 geometric mean fluorescence,11,14.7,

# Further lines, results first:
ADCC % Lysis at 10 µg/ml [1] [%],binding result (human OX40 peptide 112A),binding result (human OX40 peptide 112B),binding result (human OX40 peptide 112C),percent inhibition of OX40L binding [2] [%],IC50 [3] [µg/mL],BMAX Geo Mean [4],Kd [4] [nM],IC50 [5] [µg/mL],IC50 [6] [µg/mL],Binder
55.6,,,,,,,,,,"recombinant 112V8G1 antibody (112V8 variable regions in human IgG1) (antibody, V domains shown) VH: QITLKESGPTLVKPKQTLTLTCTFSGFSLSTSGMGVGWIRQPPGKALEWLAVIYWDDHQLYSPSLKSRLTITKDTSKNQVVLTMTNMDPVDTATYYCAHRRGAFQHWGQGTLVTVSS VL: not shown"
18,,,,,,,,,,"recombinant 112V8 IgG4PE antibody (112V8G4PE) (antibody, V domains shown) VH: QITLKESGPTLVKPKQTLTLTCTFSGFSLSTSGMGVGWIRQPPGKALEWLAVIYWDDHQLYSPSLKSRLTITKDTSKNQVVLTMTNMDPVDTATYYCAHRRGAFQHWGQGTLVTVSS VL: not shown"
37,,,,,,,,,,"recombinant 112F32G1 antibody (112F32 variable regions in human IgG1) (antibody, V domains shown) VH: GVQLVESGGGLVQPGGSLRLSCAASGFTFSSYSMNWVRQAPGKGLEWVSYISSSSSTIYYADSVKGRFTISRDNAKNSLYLQMNSLRDEDTAVYYCARGVYHNGWSFFDYWGQGTLLTVSS VL: DIQMTQSPSSLSASVGNRVTITCRASQDISSWLAWYQQKPEKAPKSLIYAASSLQSGVPSRFSGSGSGTDFTLTISSLQPEDFATYYCQQYNSYPLTFGQGTRLEIKR"
